What was measured:
Test in all cases: Quantitative phosphorylation assay of T33-Sic1ΔC constructs and recombinant substrates
Assay type in all cases: biochemical
Conditions in all cases: Table S2; purified protein substrate; relative values, not divided by [S]
[1] = target: T1, Clb2-Cdk1 (Saccharomyces cerevisiae, UniProt P00546+P24869)
T1 construct: We purified the four cyclin-Cdk1 complexes from yeast; made in house; host or cells: S. cerevisiae strain DOM0077 (gal-CLB2-TAP, sic1 deleted); Cks1 from bacteria
T1 sequence (P00546 2-298 limits assumed): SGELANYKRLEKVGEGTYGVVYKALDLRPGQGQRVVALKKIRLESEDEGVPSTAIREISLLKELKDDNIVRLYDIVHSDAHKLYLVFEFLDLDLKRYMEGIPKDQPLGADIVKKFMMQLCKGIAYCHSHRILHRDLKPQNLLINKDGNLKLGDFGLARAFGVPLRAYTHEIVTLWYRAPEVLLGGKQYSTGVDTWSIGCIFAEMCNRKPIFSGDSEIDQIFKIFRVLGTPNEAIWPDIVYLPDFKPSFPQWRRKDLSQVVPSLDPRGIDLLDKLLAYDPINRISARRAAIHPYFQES
T1 sequence (P24869 2-491 partner limits assumed): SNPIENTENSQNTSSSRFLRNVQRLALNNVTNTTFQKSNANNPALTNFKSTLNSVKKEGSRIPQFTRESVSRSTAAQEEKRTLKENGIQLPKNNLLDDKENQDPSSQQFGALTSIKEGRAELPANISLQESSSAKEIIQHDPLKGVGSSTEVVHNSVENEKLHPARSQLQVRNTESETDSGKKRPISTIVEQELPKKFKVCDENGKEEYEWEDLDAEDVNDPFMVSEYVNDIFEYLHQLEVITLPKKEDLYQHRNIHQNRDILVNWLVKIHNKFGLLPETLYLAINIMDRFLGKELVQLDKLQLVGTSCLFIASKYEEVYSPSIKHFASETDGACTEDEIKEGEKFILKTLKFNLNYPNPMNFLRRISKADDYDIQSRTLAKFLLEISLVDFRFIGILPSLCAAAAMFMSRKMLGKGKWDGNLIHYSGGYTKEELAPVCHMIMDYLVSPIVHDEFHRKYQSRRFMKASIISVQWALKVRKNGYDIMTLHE
T1 sequence (P20486 whole entry partner): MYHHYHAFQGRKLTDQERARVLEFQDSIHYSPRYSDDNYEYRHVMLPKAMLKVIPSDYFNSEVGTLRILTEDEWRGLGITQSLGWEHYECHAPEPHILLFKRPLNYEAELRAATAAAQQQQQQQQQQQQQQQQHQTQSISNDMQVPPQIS
Experimental: (§1) For the quantitative phosphorylation assays of T33-Sic1ΔC constructs and recombinant substrates, substrate concentrations were kept in the range of 0.5–2 μM (in the linear [S] versus v0 range, several-fold below the estimated KM value), and initial velocity conditions were defined as an initial substrate turnover of up to 10% of the total turnover. For the steady-state peptide kinetics of the Histone peptide PKTPKKAKKL, a similar assay composition was used as for protein substrates, and phosphocellulose paper was used for the quantification of the phosphorylated substrate. […]
(§2) similar substrate specificity as the Cln2-Cdk1 version purified using a TAP-tag. N-terminally 6His-tagged recombinant T33-Sic1ΔC constructs and substrates were cloned into the pET28a vector and purified by standard cobalt affinity chromatography and elution with 200 mM imidazole. 6His-Fin1 was purified as described previously (Woodbury and Morgan, 2007). Substrates cloned into the pGEX-4T-1 were purified on glutathione agarose columns using 5 mM reduced glutathione for elution. Cks1 was purified as described previously (Reynard et al., 2000). The optimal working concentration for purified Cks1 was taken as 500 nM based on optimization performed for cyclin-Cdk1 preparations and T33-Sic1ΔC as a substrate.
(§3) For the quantitative phosphorylation assays of T33-Sic1ΔC constructs and recombinant substrates, substrate concentrations were kept in the range of 0.5-2 μM (in the linear [S] vs v0 range, several-fold below the estimated KM value), and the initial velocity conditions were defined as an initial substrate turnover ranging up to 10% of the total turnover. The latter was estimated by a long-term incubation with excess amounts of cyclin-Cdk1 and 32P-γ-ATP in the standard reaction mixture given below. About 1-10 nM of purified kinase complex was used, reaction aliquots were taken at two or more time points, and the reaction was stopped by SDS-PAGE sample buffer. The relative kcat/KM values for the substrates were calculated as the ratio of v0/[S], which was determined from at least two independent experiments. The basal composition of the assay mixture contained 50 mM Hepes, pH 7.4, 100 mM NaCl, 0.1% NP-40, 20 mM imidazole, 0.1 mg/ml 2HA peptide, 2% glycerol, 2 mM EGTA, 0.2 mg/ml BSA, […], and 500 μM ATP (with added 32P-γ-ATP (Perkin Elmer)).
(§4) About 1-10 nM of purified kinase complex was used, reaction aliquots were taken at two or more time points, and the reaction was stopped by SDS-PAGE sample buffer. For the steady-state peptide kinetics of the Histone peptide PKTPKKAKKL, a similar assay composition was used as for protein substrates and the standard phosphocellulose method was applied for the quantification of the phosphorylated substrate (Loog and Morgan, 2005). Synthetic peptides as competitor agents were used in 4 mM final concentrations. […]

[2] = target: T2, Cln2-Cdk1 (Saccharomyces cerevisiae, UniProt P00546+P20438)
T2 construct: We purified the four cyclin-Cdk1 complexes from yeast; made in house; host or cells: S. cerevisiae strain DMY305 (galactose-induced); Cks1 from bacteria
T2 sequence (P00546 2-298 limits assumed): as the sequence (P00546 2-298 limits assumed) above
T2 sequence (P20438 whole entry partner): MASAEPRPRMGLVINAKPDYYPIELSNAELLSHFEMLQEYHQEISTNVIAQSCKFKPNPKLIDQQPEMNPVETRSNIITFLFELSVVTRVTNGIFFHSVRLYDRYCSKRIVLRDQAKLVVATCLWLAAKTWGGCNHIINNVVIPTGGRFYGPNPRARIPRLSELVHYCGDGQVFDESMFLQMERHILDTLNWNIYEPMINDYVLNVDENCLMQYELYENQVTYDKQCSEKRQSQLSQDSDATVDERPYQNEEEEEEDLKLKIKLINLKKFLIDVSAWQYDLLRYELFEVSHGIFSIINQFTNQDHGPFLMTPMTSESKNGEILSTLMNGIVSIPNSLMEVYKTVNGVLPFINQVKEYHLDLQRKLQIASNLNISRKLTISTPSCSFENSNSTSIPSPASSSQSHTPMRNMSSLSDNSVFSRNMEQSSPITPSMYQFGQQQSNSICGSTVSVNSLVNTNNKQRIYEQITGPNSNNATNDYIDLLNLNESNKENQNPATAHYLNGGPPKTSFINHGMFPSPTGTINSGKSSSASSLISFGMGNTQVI
T2 sequence (P20486 whole entry partner): as the sequence (P20486 whole entry partner) above
Experimental: as §1, §2, §3, §4

[3] = target: T3, Clb3-Cdk1 (Saccharomyces cerevisiae, UniProt P00546+P24870)
T3 construct: We purified the four cyclin-Cdk1 complexes from yeast; made in house; host or cells: S. cerevisiae strain DOM0957 (gal-CLB3-TAP, sic1 deleted); Cks1 from bacteria
T3 sequence (P00546 2-298 limits assumed): as the sequence (P00546 2-298 limits assumed) above
T3 sequence (P24870 whole entry partner): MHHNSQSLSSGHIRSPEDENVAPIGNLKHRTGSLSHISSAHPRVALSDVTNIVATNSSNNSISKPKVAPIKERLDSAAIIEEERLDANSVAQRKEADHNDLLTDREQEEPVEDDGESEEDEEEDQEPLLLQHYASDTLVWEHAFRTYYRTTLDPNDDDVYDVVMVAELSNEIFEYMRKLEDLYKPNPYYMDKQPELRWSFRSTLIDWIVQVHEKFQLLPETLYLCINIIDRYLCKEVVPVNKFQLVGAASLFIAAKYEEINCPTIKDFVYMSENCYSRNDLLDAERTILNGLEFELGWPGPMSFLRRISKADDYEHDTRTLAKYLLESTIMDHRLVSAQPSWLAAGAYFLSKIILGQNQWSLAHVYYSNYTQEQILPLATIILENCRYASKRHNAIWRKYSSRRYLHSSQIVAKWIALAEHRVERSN
T3 sequence (P20486 whole entry partner): as the sequence (P20486 whole entry partner) above
Experimental: as §1, §2, §3, §4

[4] = target: T4, Clb5-Cdk1 (Saccharomyces cerevisiae, UniProt P00546+P30283)
T4 construct: We purified the four cyclin-Cdk1 complexes from yeast; made in house; host or cells: S. cerevisiae strain DOM0076 (gal-CLB5-TAP, sic1 deleted); Cks1 from bacteria
T4 sequence (P00546 2-298 limits assumed): as the sequence (P00546 2-298 limits assumed) above
T4 sequence (P30283 whole entry partner): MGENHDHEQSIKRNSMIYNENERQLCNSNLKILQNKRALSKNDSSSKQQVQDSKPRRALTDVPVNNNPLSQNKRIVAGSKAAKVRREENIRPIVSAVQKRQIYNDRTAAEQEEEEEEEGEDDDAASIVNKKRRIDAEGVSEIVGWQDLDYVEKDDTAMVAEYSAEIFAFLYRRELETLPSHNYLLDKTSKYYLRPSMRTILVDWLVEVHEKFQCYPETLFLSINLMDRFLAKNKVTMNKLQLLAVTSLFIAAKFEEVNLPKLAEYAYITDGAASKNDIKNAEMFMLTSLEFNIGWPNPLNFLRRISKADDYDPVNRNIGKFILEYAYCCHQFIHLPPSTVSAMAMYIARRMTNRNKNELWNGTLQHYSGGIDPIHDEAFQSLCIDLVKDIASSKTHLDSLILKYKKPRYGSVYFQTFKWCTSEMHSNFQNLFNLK
T4 sequence (P20486 whole entry partner): as the sequence (P20486 whole entry partner) above
Experimental: as §1, §2, §3, §4

[5] = target: T5, Clb3hpm-Cdk1 (Saccharomyces cerevisiae, UniProt P00546+P24870)
T5 construct: made in house; host or cells: S. cerevisiae strain MK0168 (gal-CLB3hpm-TAP, sic1 deleted); Cks1 from bacteria
Experimental: (§5) For the quantitative phosphorylation assays of T33-Sic1ΔC constructs and recombinant substrates, substrate concentrations were kept in the range of 0.5–2 μM (in the linear [S] versus v0 range, several-fold below the estimated KM value), and initial velocity conditions were defined as an initial substrate turnover of up to 10% of the total turnover. For the steady-state peptide kinetics of the Histone peptide PKTPKKAKKL, a similar assay composition was used as for protein substrates, and phosphocellulose paper was used for the quantification of the phosphorylated substrate.
(§6) Supplemental Experimental Procedures
(§7) Plasmid constructs and yeast strains
(§8) For tandem affinity purification (TAP) of cyclin-Cdk1 complexes, the cyclin genes were cloned into the 2 micron vector pRSAB1234 containing a GAL1 promoter and the C-terminal TAP-tag. To purify different 6His-T33-Sic1ΔC forms for kinase assays, the C-terminally truncated fragment of Sic1 (with a stop codon inserted after amino acid 215) was cloned into the NheI/BamHI site of the bacterial expression vector pET28a (Invitrogen). Mutagenesis of cyclins or substrates was performed using single-stranded pRSAB1234 or pET28a vector constructs as templates. The triple mutants in the hydrophobic patch (hpm) of Clb5 and Clb2 were described previously (Loog and Morgan, 2005), and the hpm of Clb3 (Phe-201, Leu-205 and Trp-208 mutated to alanines) was designed according to sequence homology with other B-type cyclins. In T33-Sic1ΔC constructs, the other Cdk sites bearing the consensus motif S/T-P were mutated to Ala-Ala in order to prevent any possible (pseudo)substrate competition. The other Cdk substrates were cloned as full-length forms into bacterial expression vectors pET28a or pGEX-4T-1. Cdh1 was purified using the baculovirus system and was a kind gift from Monica Rodrigo-Brenni (UCSF). […]
The […]
(§9) pRSAB1234 analogously to the cyclin-Cdk1 complexes. For C-terminal tagging of cyclin genes in their chromosomal loci, the Pringle method was applied (Longtine et al., 1998). Lists of plasmid […]
(§10) The TAP method was applied for purification of cyclin-Cdk1 complexes and Swe1 as described previously for Clb5-TAP-Cdk1 and Clb2-TAP-Cdk1 (Puig et al., 2001; Ubersax et al., 2003). […]
as §2, with “tagged” for “similar substrate specificity as the Cln2-Cdk1 version purified using a TAP-tag. N-terminally 6His-tagged”
as §3
(§11) About 1-10 nM of purified kinase complex was used, reaction aliquots were taken at two or more […]

[6] = target: T6, Clb2hpm-Cdk1 (Saccharomyces cerevisiae, UniProt P00546)
T6 construct: made in house; host or cells: S. cerevisiae strain DOM0964 (gal-CLB2hpm-TAP, sic1 deleted); Cks1 from bacteria
T6 sequence (P00546 2-298 limits assumed): as the sequence (P00546 2-298 limits assumed) above
Experimental: as §5, §6, §7, §8
The […]
as §9, §10
as §2, with “tagged” for “similar substrate specificity as the Cln2-Cdk1 version purified using a TAP-tag. N-terminally 6His-tagged”
as §3, §11

[7] = target: T7, Clb5hpm-Cdk1 (Saccharomyces cerevisiae, UniProt P00546)
T7 construct: made in house; host or cells: S. cerevisiae strain DOM0963 (gal-CLB5hpm-TAP, sic1 deleted); Cks1 from bacteria
T7 sequence (P00546 2-298 limits assumed): as above
Experimental: as §5, §6, §7, §8
The […]
as §9, §10
as §2, with “tagged” for “similar substrate specificity as the Cln2-Cdk1 version purified using a TAP-tag. N-terminally 6His-tagged”
as §3, §11

| Molecule | kcat/KM, Clb2 [1] [relative units] | kcat/KM, Cln2 [2] [relative units] | kcat/KM, Clb3 [3] [relative units] | kcat/KM, Clb5 [4] [relative units] | kcat/KM, Clb3hpm [5] [relative units] | kcat/KM, Clb2hpm [6] [relative units] | kcat/KM, Clb5hpm [7] [relative units] |
| --- | --- | --- | --- | --- | --- | --- | --- |
| ASH1: transcription factor, purified protein tested as Cdk1 substrate | 0.462 | 0.422 | 0.697 | 0.111 | 0.134 | 0.389 | 0.052 |
| Histone H1 [reference compound] | 4.900 | 1.394 | 2.237 | 0.605 | 1.957 | 4.287 | 0.427 |
| NDD1: component of the transcription factor complex controlling G2/M-specific genes, tested as Cdk1 substrate (protein, UniProt Q08887 1-554, looked up) Nuclear division defective …: MDRDISYQQNYTSTGATATSSRQPSTDNNADTNFLKVMSEFKYNFNSPLPTTTQFPTPYSSNQYQQTQDHFANTDAHNSSSNESSLVENSILPHHQQIQQQQQQQQQQQQQQQALGSLVPPAVTRTDTSETLDDINVQPSSVLQFGNSLPSEFLVASPEQFKEFLLDSPSTNFNFFHKTPAKTPLRFVTDSNGAQQSTTENPGQQQNVFSNVDLNNLLKSNGKTPSSSCTGAFSRTPLSKIDMNLMFNQPLPTSPSKRFSSLSLTPYGRKILNDVGTPYAKALISSNSALVDFQKARKDITTNATSIGLENANNILQRTPLRSNNKKLFIKTPQDTINSTSTLTKDNENKQDIYGSSPTTIQLNSSITKSISKLDNSRIPLLASRSDNILDSNVDDQLFDLGLTRLPLSPTPNCNSLHSTTTGTSALQIPELPKMGSFRSDTGINPISSSNTVSFKSKSGNNNSKGRIKKNGKKPSKFQIIVANIDQFNQDTSSSSLSSSLNASSSAGNSNSNVTKKRASKLKRSQSLLSDSGSKSQARKSCNSKSNGNLFNSQ | 3.129 | 0.143 | 2.121 | 0.388 | 0.222 | 1.108 | 0.096 |
| FIR1: purified yeast protein tested as Cdk1 substrate (protein, UniProt P40020 1-876, looked up) Factor interacting with REF2: MSLPVTPVKSKVCSTLSIQHEMDHDQCRDVLCPRENLLAINRTNNIESVAIPRQRSSKNKKPHEHTQSQVRFSIPDPNEISQDSPLKIVFPKSGNETERRMSTSSLLMNSHGHLVDMHSKILVDVPKEVWKFHHNRRKKCESRHRKTRSDVRSNTSSSGKEPNHSRSKSLQSIIVDTMNTYRATEVETSINENTSNISQVSPLNLSFDRPPPLTPEKNLYLTPESPLNRYHLPVPLEISLPPYLSPQNKDKKRSSLVYDGDGYSQFQEGNTSSSTESSLEQPSSSYSDEDDSIPYAHHDVSFELNNADADKLLGIDENANVNLKIQRRNLKNPQHIKSKTDRECEEKNTEKNVSLKILSTPNKLIDIPDLEHMKSPPSTGLNGTLKFFQQFEPSEEPTSPTRQVNPESLDKLDMSFKFPSSTTNNNVDKVHENRNSGDTNNEDFLKVDTSPVNQSFESRRQMLIDLQKSPTNNNPRIHKHRRSRSVHNIDDISLNFEATSTPPAPTSAPSIPVEHSNPCTSIEIPKRSPLRFTSSPKTSDIPPEAQSPKNGSFLQEISVPSIQIIPDESISHTREPSPSLIECPEDENEAFSTEVADHSIAIISETKSVPSIEPFKPLSSFNSFGQEIQNKEPTPLNQTPTDLIGKQRNCVNPHSIPFSVLSSNSQSSQSGSSKSSYNSEFSSNTAITDTTSQPSVTINRSTLEHNFIEEKRSIKNLGHGPPSQKNNYSFPRNKNTPSNRHDLDFNTIYEKRDGKMVEVILLDEDEDVGLKNNDISRTRVCHAQKAKNEQQKKRLSHCNEILGMCDKTADDAKRIIYQLVNEKHKFSEKGQQTKPKKSRVLPPLPFPLYDEKGNSLIPNKYQSSIHNDIPSHRKLK | 0.836 | 0.042 | 0.223 | 0.032 | 0.017 | 0.111 | 0.008 |

Source: PMC3115021, “Dynamics of Cdk1 Substrate Specificity during the Cell Cycle” (Molecular Cell, 2011)
